The source of these data is US20120264231A1, “ASSAY FOR ORAI CALCIUM CHANNEL REGULATORS” (IMMUNE DISEASE INSTITUTE, INC., priority 2009, published 2012).

In experiment [1] the target is T1, GST-ORAI1^CT (Homo sapiens, UniProt Q96D31).
T1 construct: cDNA encoding ORAI1 residues 259-301 was amplified using PCR; made in house; host or cells: E. coli BL21 (DE3), pGEX-4T-1
Nature of the experiment: GST pull down assay with GST-ORAI1^CT (residues 259-301). It is filed as binding. As to conditions: SDS-PAGE, Coomassie staining. The source says:
Recruitment of ORAI1 to puncta by full-length STIM 1 depends on a direct or indirect interaction of STIM 1 with the C-terminal cytoplasmic tail of ORAI134,51. Therefore the direct interaction of recombinant STIM 1 proteins was next examined with a bacterially expressed fusion protein, GST-ORAI^CT, containing the cytoplasmic tail of ORAI1, residues 259-301. STIM 1^CT and the other STIM 1 fragments, except for STIM 1 (233-463), bound to GST-ORAI1^CT immobilized on resin (FIG. 2B). Binding was dependent on recognition of ORAI^CT, since there was no binding to GST alone. Because all input and bound proteins on the gel was visualized with Coomassie Brilliant Blue staining and detected no other proteins, the current experiment is unambiguous proof of a direct protein-protein interaction between STIM 1^CT and ORAI1^CT.
(§1) The cDNAs encoding mouse STIM 1^CT fragments (residues 233-685, 233-666, 233-600, 233-531, 233-498, or 233-463) were amplified via PCR and cloned into the pProEX HTb vector (Invitrogen) between the BamHI and XhoI sites for expression as His-tagged proteins. For production of the C-terminal cytoplasmic tail of ORAI 1 as a GST fusion protein, coupled to GST through the flexible linker—GSGSRGSPEF—(SEQ ID NO: 1), cDNA encoding ORAI1 residues 259-301 was amplified using PCR and cloned into the pGEX-4T-1 vector (GE Healthcare) between the BamHI and NotI sites. […]

The target of experiment [2] is T2, GST-ORAI1 (65-87) (Homo sapiens, UniProt Q96D31).
T2 construct: A plasmid encoding ORAI1 (65-87) as a GST fusion protein; made in house; host or cells: E. coli BL21 (DE3), pGEX-2T
T2 sequence (Q96D31 65-87 limits assumed): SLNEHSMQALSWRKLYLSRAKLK
As to the kind of experiment: GST pull down assay with GST-ORAI1 (65-87). The class given is binding.
Description: A conserved region of ORAI1 immediately preceding, and extending into, ORAI1 transmembrane segment 1 is implicated in channel opening (Feske et al., Nature 441: 179-185 (2006); Li et al., J. Biol. Chem. 282: 29448-29456 (2007); Park et al., Cell 136: 876-890 (2009); Derler et al., J. Biol. Chem. 284: 15903-15915 (2009)), and GFP-ORAI1 (48-91) expressed in mammalian cells co-immunoprecipitates with STIM1 (342-448) (Park et al., Cell 136: 876-890 (2009)). Here again, the protein-protein interaction is direct, because purified recombinant STIM1CT bound to purified GST-ORAI1 (65-87) (FIG. 2C).
as §1, with “sites. A plasmid encoding ORAI1 (65-87) as a GST fusion protein with the linker—GSGGGS—(SEQ ID NO: 9) was produced by inserting the corresponding Cdna into the pGEX-2T vector (GE Healthcare).” for “sites.”

T1 sequence (Q96D31 259-301): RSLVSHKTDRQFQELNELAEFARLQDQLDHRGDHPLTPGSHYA

Regarding “STIM1^CT: cytoplasmic region of STIM1, mouse residues 233-685, His-tagged recombinant protein expressed in E coli”, in experiment [1], the “binding to GST-ORAI1^CT immobilized on resin” value was “bound”. In addition, in experiment [2], the “binding to purified GST-ORAI1 (65-87)” value was “bound” and the “strength of interaction compared with STIM1^CT-ORAI1^CT interaction” value is “weaker”.
